Patent US7084111 (UNIVERSITY OF FLORIDA RESEARCH FOUNDATION, dated 2006)
Bridges are numbered along the chain shown (N, C = ends). Where no end group is shown, it is not given here. [ ]: non-standard residue; d: D form. Dap = NC[C@H](N)C(=O)O

Assays:
Experiment in all cases: cell-based or functional assay
[1] = target: mouse melanocortin-5 receptor (mouse, UniProt P41149 1-325)
[2] = target: mouse melanocortin-1 receptor (mouse, UniProt Q01727 1-315)
[3] = target: mouse melanocortin-3 receptor (mouse, UniProt P33033 1-323)
[4] = target: mouse melanocortin-4 receptor (mouse, UniProt P56450 1-332)
mouse melanocortin-4 receptor, sequence (P56450 whole entry): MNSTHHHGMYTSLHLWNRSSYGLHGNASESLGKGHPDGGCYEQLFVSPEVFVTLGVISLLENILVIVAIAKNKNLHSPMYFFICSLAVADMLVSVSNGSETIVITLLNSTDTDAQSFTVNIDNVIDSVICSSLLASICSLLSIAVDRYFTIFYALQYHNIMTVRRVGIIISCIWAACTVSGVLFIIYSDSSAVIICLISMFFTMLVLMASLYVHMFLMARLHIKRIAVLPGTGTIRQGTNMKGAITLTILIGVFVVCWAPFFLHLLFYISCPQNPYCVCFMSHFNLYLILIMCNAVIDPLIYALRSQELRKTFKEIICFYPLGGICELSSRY

mouse melanocortin-1 receptor, sequence (Q01727 whole entry): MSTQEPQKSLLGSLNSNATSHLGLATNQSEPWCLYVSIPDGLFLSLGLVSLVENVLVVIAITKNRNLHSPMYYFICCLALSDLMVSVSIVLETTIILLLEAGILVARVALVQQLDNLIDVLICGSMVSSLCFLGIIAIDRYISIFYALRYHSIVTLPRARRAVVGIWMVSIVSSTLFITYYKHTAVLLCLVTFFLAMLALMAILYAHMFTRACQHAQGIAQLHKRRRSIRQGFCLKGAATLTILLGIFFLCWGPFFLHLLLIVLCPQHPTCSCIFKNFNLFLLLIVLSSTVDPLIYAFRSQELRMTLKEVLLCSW
mouse melanocortin-5 receptor, sequence (P41149 whole entry): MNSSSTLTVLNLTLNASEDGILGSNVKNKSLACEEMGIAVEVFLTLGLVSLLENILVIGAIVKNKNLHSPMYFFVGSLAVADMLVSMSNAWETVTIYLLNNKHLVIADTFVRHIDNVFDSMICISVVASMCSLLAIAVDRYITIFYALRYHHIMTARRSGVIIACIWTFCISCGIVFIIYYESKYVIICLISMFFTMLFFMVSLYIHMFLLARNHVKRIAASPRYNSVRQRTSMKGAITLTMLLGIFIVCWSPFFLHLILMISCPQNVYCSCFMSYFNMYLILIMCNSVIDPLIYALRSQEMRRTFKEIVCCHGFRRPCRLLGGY
mouse melanocortin-3 receptor, sequence (P33033 whole entry): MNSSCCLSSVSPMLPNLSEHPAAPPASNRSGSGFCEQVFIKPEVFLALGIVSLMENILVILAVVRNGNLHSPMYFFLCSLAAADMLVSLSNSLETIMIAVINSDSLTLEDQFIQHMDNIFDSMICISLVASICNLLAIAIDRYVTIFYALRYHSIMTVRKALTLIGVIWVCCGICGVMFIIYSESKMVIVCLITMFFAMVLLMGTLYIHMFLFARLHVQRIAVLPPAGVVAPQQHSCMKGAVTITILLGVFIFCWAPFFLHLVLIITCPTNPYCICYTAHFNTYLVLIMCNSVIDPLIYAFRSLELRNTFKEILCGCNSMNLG

Q: YDHXRPNAFXY (Asp-Dpr side chain lactam bridge; Dpr; DPhe; C-terminal amide (amide resin)) [SEQ ID NO:38 (Tyr-c[Asp-His-DPhe-Arg-Pro-Asn-Ala-Phe-Dpr]-Tyr)] was tested. Which “EC50 (agonist)” value [1] did it give?
A: Its value is 700 nM.

Q: And the “EC50 (agonist)” value [2]?
A: The value was 1000 nM.

Q: What about the “EC50 (agonist)” value [3] of the same binder?
A: Its value is 39200 nM.

Q: What about the “EC50 (agonist)” value [4] of the same binder?
A: Its value is 7200 nM.

B1: SEQ ID NO:30 (Tyr-c[Asp-(rac)Atc-DPhe-Arg-Trp-Asn-Ala-Phe-Dpr]-Tyr) (peptide)
peptide: YDXXRWNAFXY
modifications: Asp-Dpr side chain lactam bridge; Dpr; (rac)Atc; DPhe; C-terminal amide (amide resin)
Q: What does the source list for B1?
A: EC50 (agonist) [1]: 440 nM; EC50 (agonist) [2]: 690 nM; pA2 (antagonist) [3]: 6.4; EC50 (agonist) [4]: 115 nM

B2: SEQ ID NO:1 (Tyr-c[Cys-Arg-Phe-DPhe-Asn-Ala-Phe-Cys]-Tyr) (peptide)
peptide: YCRF[dF]NAFCY-NH2
modifications: disulfide 2-9; N-terminus assumed
SMILES: C[C@@H]1NC(=O)[C@H](CC(N)=O)NC(=O)[C@@H](Cc2ccccc2)NC(=O)[C@H](Cc2ccccc2)NC(=O)[C@H](CCCNC(=N)N)NC(=O)[C@@H](NC(=O)[C@@H](N)Cc2ccc(O)cc2)CSSC[C@@H](C(=O)N[C@@H](Cc2ccc(O)cc2)C(N)=O)NC(=O)[C@H](Cc2ccccc2)NC1=O
Q: For B2, which “EC50 (agonist)” value [1] is on record?
A: The value was 239 nM.

Q: What about the “EC50 (agonist)” value [2] of the same binder?
A: The value was 61.3 nM.

Q: What about the “EC50 (agonist)” value [3] of the same binder?
A: The value was greater than 100000 nM.

Q: What about the “pA2 (antagonist; Partial agonist)” value [4] of the same binder?
A: Its value is 6.1.

Q: YDHXRWNAFXY (Asp-Dpr side chain lactam bridge; Dpr; DNal(2′); C-terminal amide (amide resin)) [SEQ ID NO:33 (Tyr-c[Asp-His-DNal(2′)-Arg-Trp-Asn-Ala-Phe-Dpr]-Tyr)] was tested. Which “EC50 (agonist)” value [1] did it give?
A: The value was 22.3 nM.

Q: What about the “EC50 (agonist)” value [2] of the same binder?
A: The value was 5.56 nM.

Q: What about the “pA2 (antagonist)” value [3] of the same binder?
A: The value was 8.3.

Q: What about the “pA2 (antagonist; Partial agonist)” value [4] of the same binder?
A: The value was 9.3.

B3: SEQ ID NO:41 (Tyr-c[Asp-His-DPhe-Arg-Bip-Asn-Ala-Phe-Dpr]-Tyr) (peptide)
peptide: YDHXRXNAFXY
modifications: Asp-Dpr side chain lactam bridge; Dpr; DPhe; Bip; C-terminal amide (amide resin)
Q: For B3, which “EC50 (agonist)” value [1] is on record?
A: Its value is 3.43 nM.

Q: And the “EC50 (agonist)” value [2]?
A: The value was 11.6 nM.

Q: What about the “EC50 (agonist)” value [3] of the same binder?
A: Its value is 450 nM.

Q: What about the “EC50 (agonist)” value [4] of the same binder?
A: The value was 42.6 nM.

Q: For YDHXKWNAFXY (Asp-Dpr side chain lactam bridge; Dpr; DPhe; C-terminal amide (amide resin)) [SEQ ID NO:37 (Tyr-c[Asp-His-DPhe-Lys-Trp-Asn-Ala-Phe-Dpr]-Tyr)], which “EC50 (agonist)” value [1] is on record?
A: The value was 800 nM.

Q: And the “EC50 (agonist)” value [2]?
A: The value was 680 nM.

Q: What about the “EC50 (agonist)” value [3] of the same binder?
A: Its value is 30800 nM.

Q: And the “EC50 (agonist)” value [4]?
A: Its value is 8600 nM.

Q: How did the “EC50 (agonist)” value [1] turn out when YDHXRANAFXY (Asp-Dpr side chain lactam bridge; Dpr; DPhe; C-terminal amide (amide resin)) [SEQ ID NO:27 (Tyr-c[Asp-His-DPhe-Arg-Ala-Asn-Ala-Phe-Dpr]-Tyr)] was run?
A: The value was 50.1 nM.

Q: What about the “EC50 (agonist)” value [2] of the same binder?
A: Its value is 350 nM.

Q: And the “EC50 (agonist)” value [3]?
A: The value was 13500 nM.

Q: And the “EC50 (agonist)” value [4]?
A: The value was 710 nM.

B4: SEQ ID NO:31 (Tyr-c[Asp-His-Pro-Arg-Trp-Asn-Ala-Phe-Dpr]-Tyr) (peptide)
peptide: YDHPRWNAF[Dap]Y-NH2
modifications: lactam 2-10; N-terminus assumed
SMILES: C[C@@H]1NC(=O)[C@H](CC(N)=O)NC(=O)[C@H](Cc2c[nH]c3ccccc23)NC(=O)[C@H](CCCNC(=N)N)NC(=O)[C@@H]2CCCN2C(=O)[C@H](Cc2c[nH]cn2)NC(=O)[C@@H](NC(=O)[C@@H](N)Cc2ccc(O)cc2)CC(=O)NC[C@@H](C(=O)N[C@@H](Cc2ccc(O)cc2)C(N)=O)NC(=O)[C@H](Cc2ccccc2)NC1=O
Q: With B4 as the binder, how does the “EC50 (agonist)” value [1] read?
A: Its value is 7900 nM.

Q: And the “EC50 (agonist)” value [2]?
A: The value was 10300 nM.

Q: What about the “EC50 (agonist)” value [3] of the same binder?
A: Its value is 13200 nM.

Q: And the “EC50 (agonist)” value [4]?
A: The value was 16700 nM.

B5: SEQ ID NO:42 (Tyr-c[Asp-His-DPhe-Arg-Tic-Asn-Ala-Phe-Dpr]-Tyr) (peptide)
peptide: YDHXRXNAFXY
modifications: Asp-Dpr side chain lactam bridge; Dpr; DPhe; Tic; C-terminal amide (amide resin)
Q: How did the “EC50 (agonist)” value [1] turn out when B5 was run?
A: Its value is 42.7 nM.

Q: What about the “EC50 (agonist)” value [2] of the same binder?
A: The value was 21.6 nM.

Q: And the “EC50 (agonist)” value [3]?
A: Its value is 3400 nM.

Q: What about the “EC50 (agonist)” value [4] of the same binder?
A: The value was 260 nM.

Q: What does the source list for YDPXRWNAFXY (Asp-Dpr side chain lactam bridge; Dpr; DPhe; C-terminal amide (amide resin)) [SEQ ID NO:28 (Tyr-c[Asp-Pro-DPhe-Arg-Trp-Asn-Ala-Phe-Dpr]-Tyr)]?
A: EC50 (agonist) [1]: 7.16 nM; EC50 (agonist) [2]: 22.1 nM; pA2 (antagonist; Partial agonist) [3]: 7.2; EC50 (agonist) [4]: 0.63 nM

Q: For YDHXRWNAFXY (Asp-Dpr side chain lactam bridge; Dpr; DBip; C-terminal amide (amide resin)) [SEQ ID NO:35 (Tyr-c[Asp-His-DBip-Arg-Trp-Asn-Ala-Phe-Dpr]-Tyr)], which “EC50 (agonist)” value [1] is on record?
A: Its value is 5.27 nM.

Q: And the “EC50 (agonist)” value [2]?
A: The value was 3.87 nM.

Q: And the “EC50 (agonist)” value [3]?
A: The value was 33 nM.

Q: What about the “EC50 (agonist)” value [4] of the same binder?
A: The value was 0.57 nM.

Q: What does the source list for YDHXPWNAFXY (Asp-Dpr side chain lactam bridge; Dpr; DPhe; C-terminal amide (amide resin)) [SEQ ID NO:36 (Tyr-c[Asp-His-DPhe-Pro-Trp-Asn-Ala-Phe-Dpr]-Tyr)]?
A: EC50 (agonist) [1]: 3200 nM; EC50 (agonist) [2]: 990 nM; EC50 (agonist) [3]: 17300 nM; EC50 (agonist) [4]: 4300 nM

Q: Which results are given for YDHXRWNAFXY (Asp-Dpr side chain lactam bridge; Dpr; (pI)DPhe; C-terminal amide (amide resin)) [SEQ ID NO:32 (Tyr-c[Asp-His-(pI)DPhe-Arg-Trp-Asn-Ala-Phe-Dpr]-Tyr)]?
A: EC50 (agonist) [1]: 2.33 nM; EC50 (agonist) [2]: 0.3 nM; pA2 (antagonist) [3]: 8.9; pA2 (antagonist; Partial agonist) [4]: 9.4

B6: SEQ ID NO:40 (Tyr-c[Asp-His-DPhe-Arg-DNal(2′)-Asn-Ala-Phe-Dpr]-Tyr) (peptide)
peptide: YDHXRXNAFXY
modifications: Asp-Dpr side chain lactam bridge; Dpr; DPhe; DNal(2′); C-terminal amide (amide resin)
Q: How did the “EC50 (agonist)” value [1] turn out when B6 was run?
A: Its value is 0.95 nM.

Q: What about the “EC50 (agonist)” value [2] of the same binder?
A: The value was 0.2 nM.

Q: What about the “EC50 (agonist)” value [3] of the same binder?
A: The value was 6.5 nM.

Q: And the “EC50 (agonist)” value [4]?
A: Its value is 0.67 nM.

B7: SEQ ID NO:39 (Tyr-c[Asp-His-DPhe-Arg-Nal(2′)-Asn-Ala-Phe-Dpr]-Tyr) (peptide)
peptide: YDHXRXNAFXY
modifications: Asp-Dpr side chain lactam bridge; Dpr; DPhe; Nal(2′); C-terminal amide (amide resin)
Q: For B7, which “EC50 (agonist)” value [1] is on record?
A: Its value is 1.93 nM.

Q: And the “EC50 (agonist)” value [2]?
A: Its value is 0.53 nM.

Q: And the “EC50 (agonist)” value [3]?
A: The value was 5.56 nM.

Q: And the “EC50 (agonist)” value [4]?
A: The value was 0.27 nM.

Q: For YDHXRWNAFXY (Asp-Dpr side chain lactam bridge; Dpr; DNal(1′); C-terminal amide (amide resin)) [SEQ ID NO:34 (Tyr-c[Asp-His-DNal(1′)-Arg-Trp-Asn-Ala-Phe-Dpr]-Tyr)], which “EC50 (agonist)” value [1] is on record?
A: Its value is 3.13 nM.

Q: And the “EC50 (agonist)” value [2]?
A: The value was 9.2 nM.

Q: And the “EC50 (agonist)” value [3]?
A: Its value is 320 nM.

Q: And the “EC50 (agonist)” value [4]?
A: Its value is 0.57 nM.

B8: SEQ ID NO:2 (Tyr-c[Asp-Ala-Ala-Ala-Asn-Ala-Phe-Dpr]-Tyr) (peptide)
peptide: YDAAANAF[Dap]Y-NH2
modifications: lactam 2-9; N-terminus assumed
SMILES: C[C@@H]1NC(=O)[C@H](C)NC(=O)[C@@H](NC(=O)[C@@H](N)Cc2ccc(O)cc2)CC(=O)NC[C@@H](C(=O)N[C@@H](Cc2ccc(O)cc2)C(N)=O)NC(=O)[C@H](Cc2ccccc2)NC(=O)[C@H](C)NC(=O)[C@H](CC(N)=O)NC(=O)[C@H](C)NC1=O
Q: Which results are given for B8?
A: EC50 (agonist) [1]: > 100000 nM; EC50 (agonist) [2]: > 100000 nM; EC50 (agonist) [3]: > 100000 nM; EC50 (agonist) [4]: > 100000 nM

Q: Which results are given for YDFXRWNAFXY (Asp-Dpr side chain lactam bridge; Dpr; DPhe; C-terminal amide (amide resin)) [SEQ ID NO:29 (Tyr-c[Asp-Phe-DPhe-Arg-Trp-Asn-Ala-Phe-Dpr]-Tyr)]?
A: EC50 (agonist) [1]: 3.15 nM; EC50 (agonist) [2]: 6.04 nM; pA2 (antagonist; Partial agonist) [3]: 7.2; EC50 (agonist) [4]: 0.64 nM

B9: SEQ ID NO:25 (Tyr-c[Asp-His-Ala-Arg-Trp-Asn-Ala-Phe-Dpr]-Tyr) (peptide)
peptide: YDHARWNAF[Dap]Y-NH2
modifications: lactam 2-10; N-terminus assumed
SMILES: C[C@@H]1NC(=O)[C@H](CC(N)=O)NC(=O)[C@H](Cc2c[nH]c3ccccc23)NC(=O)[C@H](CCCNC(=N)N)NC(=O)[C@H](C)NC(=O)[C@H](Cc2c[nH]cn2)NC(=O)[C@@H](NC(=O)[C@@H](N)Cc2ccc(O)cc2)CC(=O)NC[C@@H](C(=O)N[C@@H](Cc2ccc(O)cc2)C(N)=O)NC(=O)[C@H](Cc2ccccc2)NC1=O
Q: Which “EC50 (agonist)” value [1] does the source give for B9 here?
A: Its value is 690 nM.

Q: What about the “EC50 (agonist)” value [2] of the same binder?
A: Its value is 14000 nM.

Q: What about the “EC50 (agonist; Partial agonist)” value [3] of the same binder?
A: The value was 30300 nM.

Q: What about the “EC50 (agonist)” value [4] of the same binder?
A: Its value is 14700 nM.

Q: Which results are given for YDHXAWNAFXY (Asp-Dpr side chain lactam bridge; Dpr; DPhe; C-terminal amide (amide resin)) [SEQ ID NO:26 (Tyr-c[Asp-His-DPhe-Ala-Trp-Asn-Ala-Phe-Dpr]-Tyr)]?
A: EC50 (agonist) [1]: 2.06 nM; EC50 (agonist) [2]: 66.5 nM; EC50 (agonist) [3]: 23800 nM; EC50 (agonist) [4]: 32.5 nM
